Measured values from IntAct's records for PubMed 29892012.

B1: Transmembrane protein 218 (Homo sapiens), A2RU14 (parent)
chain: MAGTVLGVGAGVFILALLWVAVLLLCVLLSRASGAARFSVIFLFFGAVIITSVLLLFPRAGEFPAPEVEVKIVDDFFIGRYVLLAFLSAIFLGGLFLVLIHYVLEPIYAKPLHSY
partner: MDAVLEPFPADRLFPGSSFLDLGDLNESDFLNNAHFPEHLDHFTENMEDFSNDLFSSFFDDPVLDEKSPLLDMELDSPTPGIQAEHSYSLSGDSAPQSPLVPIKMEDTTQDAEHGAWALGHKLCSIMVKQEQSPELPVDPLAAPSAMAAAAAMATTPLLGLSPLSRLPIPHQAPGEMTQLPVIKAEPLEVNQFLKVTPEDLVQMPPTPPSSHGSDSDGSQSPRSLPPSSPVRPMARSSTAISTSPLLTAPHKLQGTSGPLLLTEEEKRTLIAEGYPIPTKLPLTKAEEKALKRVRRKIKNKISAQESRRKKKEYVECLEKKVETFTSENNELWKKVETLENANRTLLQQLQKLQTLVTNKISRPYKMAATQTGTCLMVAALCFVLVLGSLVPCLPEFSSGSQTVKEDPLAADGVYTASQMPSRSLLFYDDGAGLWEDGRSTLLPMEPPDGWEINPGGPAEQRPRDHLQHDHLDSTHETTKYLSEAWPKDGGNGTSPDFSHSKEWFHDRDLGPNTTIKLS
B2: Retinoic acid receptor alpha (Homo sapiens), P10276 (parent)
chain: MASNSSSCPTPGGGHLNGYPVPPYAFFFPPMLGGLSPPGALTTLQHQLPVSGYSTPSPATIETQSSSSEEIVPSPPSPPPLPRIYKPCFVCQDKSSGYHYGVSACEGCKGFFRRSIQKNMVYTCHRDKNCIINKVTRNRCQYCRLQKCFEVGMSKESVRNDRNKKKKEVPKPECSESYTLTPEVGELIEKVRKAHQETFPALCQLGKYTTNNSSEQRVSLDIDLWDKFSELSTKCIIKTVEFAKQLPGFTTLTIADQITLLKAACLDILILRICTRYTPEQDTMTFSDGLTLNRTQMHNAGFGPLTDLVFAFANQLLPLEMDDAETGLLSAICLICGDRQDLEQPDRVDMLQEPLLEALKVYVRKRRPSRPHMFPKMLMKITDLRSISAKGAERVITLKMEIPGSMPPLIQEMLENSEGLDTLSGQPGGGGRDGGGLAPPPGSCSPSLSPSSNRSSPATHSP
partner: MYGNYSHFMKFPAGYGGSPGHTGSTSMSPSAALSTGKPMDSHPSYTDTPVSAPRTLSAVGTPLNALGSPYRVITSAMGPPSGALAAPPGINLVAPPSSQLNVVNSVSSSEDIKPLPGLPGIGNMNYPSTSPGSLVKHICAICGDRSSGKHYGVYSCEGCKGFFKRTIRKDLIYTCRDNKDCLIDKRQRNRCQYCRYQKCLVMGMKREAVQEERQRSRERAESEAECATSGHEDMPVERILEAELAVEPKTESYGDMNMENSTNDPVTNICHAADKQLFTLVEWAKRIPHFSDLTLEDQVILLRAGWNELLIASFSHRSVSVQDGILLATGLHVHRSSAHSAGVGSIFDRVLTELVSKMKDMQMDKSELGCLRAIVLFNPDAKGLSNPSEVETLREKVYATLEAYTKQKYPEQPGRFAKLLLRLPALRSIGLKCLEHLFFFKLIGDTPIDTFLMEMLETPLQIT
B3: Glutaredoxin-3 (Homo sapiens), O76003 (parent)
chain: MAAGAAEAAVAAVEEVGSAGQFEELLRLKAKSLLVVHFWAPWAPQCAQMNEVMAELAKELPQVSFVKLEAEGVPEVSEKYEISSVPTFLFFKNSQKIDRLDGAHAPELTKKVQRHASSGSFLPSANEHLKEDLNLRLKKLTHAAPCMLFMKGTPQEPRCGFSKQMVEILHKHNIQFSSFDIFSDEEVRQGLKAYSSWPTYPQLYVSGELIGGLDIIKELEASEELDTICPKAPKLEERLKVLTNKASVMLFMKGNKQEAKCGFSKQILEILNSTGVEYETFDILEDEEVRQGLKAYSNWPTYPQLYVKGELVGGLDIVKELKENGELLPILRGEN
partner: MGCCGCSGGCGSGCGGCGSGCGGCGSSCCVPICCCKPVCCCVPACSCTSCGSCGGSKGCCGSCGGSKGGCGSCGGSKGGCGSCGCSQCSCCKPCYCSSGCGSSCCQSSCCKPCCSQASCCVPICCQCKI
B4: Chaperone Ric-8A (Homo sapiens), Q9NPQ8 (parent)
chain: MEPRAVAEAVETGEEDVIMEALRSYNQEHSQSFTFDDAQQEDRKRLAELLVSVLEQGLPPSHRVIWLQSVRILSRDRNCLDPFTSRQSLQALACYADISVSEGSVPESADMDVVLESLKCLCNLVLSSPVAQMLAAEARLVVKLTERVGLYRERSFPHDVQFFDLRLLFLLTALRTDVRQQLFQELKGVRLLTDTLELTLGVTPEGNPPPTLLPSQETERAMEILKVLFNITLDSIKGEVDEEDAALYRHLGTLLRHCVMIATAGDRTEEFHGHAVNLLGNLPLKCLDVLLTLEPHGDSTEFMGVNMDVIRALLIFLEKRLHKTHRLKESVAPVLSVLTECARMHRPARKFLKAQVLPPLRDVRTRPEVGEMLRNKLVRLMTHLDTDVKRVAAEFLFVLCSESVPRFIKYTGYGNAAGLLAARGLMAGGRPEGQYSEDEDTDTDEYKEAKASINPVTGRVEEKPPNPMEGMTEEQKEHEAMKLVTMFDKLSRNRVIQPMGMSPRGHLTSLQDAMCETMEQQLSSDPDSDPD
partner: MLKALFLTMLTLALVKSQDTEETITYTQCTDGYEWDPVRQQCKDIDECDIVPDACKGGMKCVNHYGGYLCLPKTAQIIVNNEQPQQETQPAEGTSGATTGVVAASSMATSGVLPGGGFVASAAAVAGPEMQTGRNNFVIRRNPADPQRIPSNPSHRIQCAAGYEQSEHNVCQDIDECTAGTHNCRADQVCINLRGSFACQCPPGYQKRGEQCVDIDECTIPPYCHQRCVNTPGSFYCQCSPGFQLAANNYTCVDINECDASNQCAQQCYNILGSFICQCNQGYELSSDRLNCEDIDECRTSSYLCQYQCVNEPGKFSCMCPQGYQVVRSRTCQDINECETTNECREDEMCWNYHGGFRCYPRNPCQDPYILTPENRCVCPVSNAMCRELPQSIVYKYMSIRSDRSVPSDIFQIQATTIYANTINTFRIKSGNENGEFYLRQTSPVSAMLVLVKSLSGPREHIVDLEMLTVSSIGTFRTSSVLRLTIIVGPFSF
B5: Protein VAC14 homolog (Homo sapiens), Q08AM6 (parent)
chain: MNPEKDFAPLTPNIVRALNDKLYEKRKVAALEIEKLVREFVAQNNTVQIKHVIQTLSQEFALSQHPHSRKGGLIGLAACSIALGKDSGLYLKELIEPVLTCFNDADSRLRYYACEALYNIVKVARGAVLPHFNVLFDGLSKLAADPDPNVKSGSELLDRLLKDIVTESNKFDLVSFIPLLRERIYSNNQYARQFIISWILVLESVPDINLLDYLPEILDGLFQILGDNGKEIRKMCEVVLGEFLKEIKKNPSSVKFAEMANILVIHCQTTDDLIQLTAMCWMREFIQLAGRVMLPYSSGILTAVLPCLAYDDRKKSIKEVANVCNQSLMKLVTPEDDELDELRPGQRQAEPTPDDALPKQEGTASGGPDGSCDSSFSSGISVFTAASTERAPVTLHLDGIVQVLNCHLSDTAIGMMTRIAVLKWLYHLYIKTPRKMFRHTDSLFPILLQTLSDESDEVILKDLEVLAEIASSPAGQTDDPGPLDGPDLQASHSELQVPTPGRAGLLNTSGTKGLECSPSTPTMNSYFYKFMINLLKRFSSERKLLEVRGPFIIRQLCLLLNAENIFHSMADILLREEDLKFASTMVHALNTILLTSTELFQLRNQLKDLKTLESQNLFCCLYRSWCHNPVTTVSLCFLTQNYRHAYDLIQKFGDLEVTVDFLAEVDKLVQLIECPIFTYLRLQLLDVKNNPYLIKALYGLLMLLPQSSAFQLLSHRLQCVPNPELLQTEDSLKAAPKSQKADSPSIDYAELLQHFEKVQNKHLEVRHQRSGRGDHLDRRVVL
partner: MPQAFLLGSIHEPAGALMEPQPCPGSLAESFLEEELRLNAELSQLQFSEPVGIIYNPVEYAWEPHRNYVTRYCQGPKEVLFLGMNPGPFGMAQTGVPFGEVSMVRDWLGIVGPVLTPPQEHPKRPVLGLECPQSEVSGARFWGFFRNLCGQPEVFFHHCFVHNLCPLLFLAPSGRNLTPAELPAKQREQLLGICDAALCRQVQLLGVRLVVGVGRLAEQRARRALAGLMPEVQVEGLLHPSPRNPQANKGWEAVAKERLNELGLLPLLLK

Variants of: B1
Details: with cr3l1_human CREB3L1, Q96BA8

| effect of a mutation on the interaction | Variant |
| --- | --- |
| with no effect | P66S |

Variants of: B2
Details: with rxrg_human RXRG

| effect of a mutation on the interaction | Variant |
| --- | --- |
| with no effect | R83H |

Variants of: B2
Details: with rxrg_human RXRG
Remark: another data set of the same source

| effect of a mutation on the interaction | Variant |
| --- | --- |
| disrupting interaction strength | P375L |

Variants of: B3
Details: with kra56_human KRTAP5-6, Q6L8G9

| effect of a mutation on the interaction | Variant |
| --- | --- |
| with no effect | P145A |

Variants of: B4
Details: with fbln3_human EFEMP1, Q12805

| effect of a mutation on the interaction | Variant |
| --- | --- |
| with no effect | K319E |

Variants of: B5
Details: with smug1_human SMUG1, Q53HV7

| effect of a mutation on the interaction | Variant |
| --- | --- |
| with no effect | A127S |
